From the supplement of paper PMC7877785
± gives the uncertainty stated by the source.

Assay: self-splicing fitness, log relative to wild type (ln ratio); higher = more splicing; Tetrahymena group I intron in knt gene, E. coli kanamycin selection, DiMSum; sequences stand for … in CUCUCU…GGAGGGAAAAGUUAUCAGGCAUGCACCUGGUAGCUAGUCUUUAAACCAAUAGAUUGCAUCGGUUUAAAAGGCAAGACCGUCAAAUUGCGGGAAAGGGGUCAACAGCCGUUCAGUACCAAGUCUCAGGGGAAACUUUGAGAUGGCCUUGCAAAGGGUAUGGUAAUAAGCUGACGGACAUGGUCCUAACCACGCAGCCAAGUCCUAAGUCAACAGAUCUUCUGUUGAUAUGGAUGCAGUUCACAGACUAAAUGUCGGUCGGGGAAGAUGUAUUCUUCUCAUAAGAUAUAGUCGGACCUCUCCUUAAUGGGAGCUAGCGGAUGAAGUGAUGCAACACUGGAGCCGCUGGGAACUAAUUUGUAUGCGAAAGUAUAUUGAUUAGUUUUGGAGUACUCGUGGUCG
Outline: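 DiMSum derived fitness as the error-weighted combination of fold changes across replicates, kanamycin versus no kanamycin, normalised to wild type. E. coli BL21(DE3) held the library, which randomised all eight P1ex-region intron nucleotides within the knt kanamycin-resistance gene on pET-22b(+). Six replicate transformations grew overnight at 37°C or 30°C on LB agar with or without 25 μg/mL kanamycin, also containing 100 μg/mL carbenicillin, 50 μM IPTG and 0.2% rhamnose, and pooled colonies were amplicon-sequenced on an Illumina HiSeq 2500.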

Sequence | self-splicing fitness (ln) (30 °C) | self-splicing fitness (ln) (37 °C)
CCGGAGCAAUAUUACGUGUA | -2.99 ± 0.2 | -2.61 ± 0.25
CCGUAGCAAUAUUACGAACU | -3.64 ± 0.47 | -1.14 ± 0.28
CCGUAGCAAUAUUACGACGC |  | -3.08 ± 0.38
CCGUAGCAAUAUUACGACGU | -0.571 ± 0.075 | -0.205 ± 0.088
CCGUAGCAAUAUUACGAUCA | -2.86 ± 0.32 | -2.34 ± 0.35
CCGUAGCAAUAUUACGAUGC | -4.08 ± 0.36 | -1.39 ± 0.23
CCGUAGCAAUAUUACGCACG | -2.02 ± 0.096 | -1.53 ± 0.13
CCGUAGCAAUAUUACGCCAC | -1.95 ± 0.22 | -1.78 ± 0.33
CCGUAGCAAUAUUACGCGUU | -4.15 ± 0.39 | -2.86 ± 0.31
CCGUAGCAAUAUUACGGAAG | -1.47 ± 0.17 | -2.34 ± 0.41
CCGUAGCAAUAUUACGGAAU | -3.73 ± 0.3 | -1.92 ± 0.32
CCGUAGCAAUAUUACGGACU | -4.02 ± 0.22 | -2.54 ± 0.2
CCGUAGCAAUAUUACGGAGG | -3.6 ± 0.17 | -3.34 ± 0.25
CCGUAGCAAUAUUACGUAUG | -0.772 ± 0.082 | 0.203 ± 0.12
CCGUAGCAAUAUUACGUCCA | -2.27 ± 0.28 | -3.26 ± 0.28
CCGUAGCAAUAUUACGUCGU | -3.2 ± 0.18 | -1.25 ± 0.16
CCGUAGCAAUAUUACGUGCA | -3.06 ± 0.21 | -2.88 ± 0.15
CCGUAGCAAUAUUACGUGCC | -4.11 ± 0.47 | -2.33 ± 0.28
CCGUAGCAAUAUUACGUUGA | -2.67 ± 0.33 | -3.13 ± 0.29
CCUAAGCAAUAUUACGACAG | -0.604 ± 0.081 | -1 ± 0.11
CCUAAGCAAUAUUACGACCG | -1.24 ± 0.14 | -0.121 ± 0.13
CCUAAGCAAUAUUACGAUCG | -0.805 ± 0.15 | -0.185 ± 0.17
CCUAAGCAAUAUUACGAUUA | -3.04 ± 0.19 | -2.62 ± 0.22
CCUAAGCAAUAUUACGCAUA | -4.08 ± 0.28 | -2.77 ± 0.27
CCUAAGCAAUAUUACGCAUC | -2.22 ± 0.13 | -1.91 ± 0.13

Sequence | self-splicing fitness (ln) (30 °C) | self-splicing fitness (ln) (37 °C)
CCUAAGCAAUAUUACGCCGU | -2.92 ± 0.19 | -3.22 ± 0.29
CCUAAGCAAUAUUACGCGAA | -2.23 ± 0.22 | -2.61 ± 0.29
CCUAAGCAAUAUUACGCGAC | -2.41 ± 0.3 | -3.61 ± 0.39
CCUAAGCAAUAUUACGCUGA | -2.63 ± 0.21 | -1.96 ± 0.32
CCUAAGCAAUAUUACGGCAC | -3.72 ± 0.25 | -2.62 ± 0.28
CCUAAGCAAUAUUACGGUUC | -3.88 ± 0.23 | -2.59 ± 0.22
CCUAAGCAAUAUUACGUAGA | -1.33 ± 0.08 | -0.523 ± 0.1
CCUAAGCAAUAUUACGUAGC | -4.03 ± 0.34 | -2.21 ± 0.23
CCUAAGCAAUAUUACGUAUA | -3 ± 0.15 | -2.67 ± 0.17
CCUAAGCAAUAUUACGUCCU | -3.74 ± 0.33 | -2.04 ± 0.24
CCUAAGCAAUAUUACGUUCC | -3.6 ± 0.3 | -1.8 ± 0.34
CCUAAGCAAUAUUACGUUGG | -3.45 ± 0.27 | -2.96 ± 0.24
CCUCAGCAAUAUUACGAAAU | -3.99 ± 0.28 | -2.15 ± 0.34
CCUCAGCAAUAUUACGAAGA | -3.71 ± 0.3 | -2.31 ± 0.25
CCUCAGCAAUAUUACGACAC | -4.04 ± 0.28 | -2.5 ± 0.29
CCUCAGCAAUAUUACGACUA | -3.2 ± 0.43 | -3.06 ± 0.32
CCUCAGCAAUAUUACGAGAC | -3.31 ± 0.32 | -2.88 ± 0.35
CCUCAGCAAUAUUACGAUAC | -3.21 ± 0.26 | -3.08 ± 0.47
CCUCAGCAAUAUUACGCAGC | -3.42 ± 0.14 | -2.49 ± 0.17
CCUCAGCAAUAUUACGCAGG | -3.84 ± 0.25 | -2.5 ± 0.3
CCUCAGCAAUAUUACGCCGG | -3.32 ± 0.21 | -0.587 ± 0.15
CCUCAGCAAUAUUACGCCGU | -3.05 ± 0.23 | -2.08 ± 0.25
CCUCAGCAAUAUUACGCGAG | -2.89 ± 0.1 | -1.76 ± 0.11
CCUCAGCAAUAUUACGCGUA | -2.71 ± 0.21 | -3.37 ± 0.28
CCUCAGCAAUAUUACGGACA | -3.54 ± 0.19 | -3.15 ± 0.26

Sequence | self-splicing fitness (ln) (30 °C) | self-splicing fitness (ln) (37 °C)
CCUCAGCAAUAUUACGGAUU | -4.3 ± 0.39 | -2.56 ± 0.22
CCUCAGCAAUAUUACGGUAC | -4.96 ± 0.32 | -2.26 ± 0.26
CCUCAGCAAUAUUACGUAAG | -0.219 ± 0.059 | 0.292 ± 0.082
CCUCAGCAAUAUUACGUACA | -3.73 ± 0.29 | -2.78 ± 0.34
CCUCAGCAAUAUUACGUACC | -4.27 ± 0.25 | -3.42 ± 0.39
CCUCAGCAAUAUUACGUGAA | -3.66 ± 0.2 | -2.22 ± 0.2
CCUCAGCAAUAUUACGUGUC | -3.35 ± 0.13 | -2.48 ± 0.2
CCUGAGCAAUAUUACGACGU | -2.28 ± 0.14 | -0.0399 ± 0.14
CCUGAGCAAUAUUACGAGCU |  | -1.95 ± 0.42
CCUGAGCAAUAUUACGAGUC |  | -2.36 ± 0.34
CCUGAGCAAUAUUACGAGUG | -1.44 ± 0.097 | -0.572 ± 0.12
CCUGAGCAAUAUUACGCAUG | -4.37 ± 0.34 | -2.27 ± 0.28
CCUGAGCAAUAUUACGCGGC | -3.57 ± 0.2 | -2.55 ± 0.22
CCUGAGCAAUAUUACGCGGG | -3.41 ± 0.26 | -2.22 ± 0.34
CCUGAGCAAUAUUACGCUAA | -3.04 ± 0.2 | -2.88 ± 0.25
CCUGAGCAAUAUUACGCUUG |  | -1.23 ± 0.28
CCUGAGCAAUAUUACGGAAA | -3.53 ± 0.35 | -1.92 ± 0.28
CCUGAGCAAUAUUACGGCAG | -2.92 ± 0.34 | -0.802 ± 0.17
CCUGAGCAAUAUUACGGCGA | -3.62 ± 0.46 | -2.62 ± 0.38
CCUGAGCAAUAUUACGGGUA | -2.9 ± 0.27 | -2.07 ± 0.31
CCUGAGCAAUAUUACGGGUG | -2.65 ± 0.12 | -1.81 ± 0.14
CCUGAGCAAUAUUACGGUUC | -3.21 ± 0.23 | -3.06 ± 0.4
CCUUAGCAAUAUUACGAAGU | -2.21 ± 0.15 | -1.93 ± 0.12
CCUUAGCAAUAUUACGACUU | -3.8 ± 0.35 | -2.73 ± 0.32
CCUUAGCAAUAUUACGAGAC |  | -1.83 ± 0.25

Sequence | self-splicing fitness (ln) (30 °C) | self-splicing fitness (ln) (37 °C)
CCUUAGCAAUAUUACGAGAU | -2.62 ± 0.26 | -2.79 ± 0.21
CCUUAGCAAUAUUACGAGCC | -3.38 ± 0.34 | 
CCUUAGCAAUAUUACGAUUU | -4.25 ± 0.42 | -2.44 ± 0.35
CCUUAGCAAUAUUACGCAAC |  | -2.04 ± 0.48
CCUUAGCAAUAUUACGCAGU | -3.81 ± 0.23 | -2.32 ± 0.23
CCUUAGCAAUAUUACGCAUG | -3.78 ± 0.19 | -2.14 ± 0.18
CCUUAGCAAUAUUACGCCGU | -2.66 ± 0.22 | -2.18 ± 0.24
CCUUAGCAAUAUUACGCCUC |  | -2.65 ± 0.41
CCUUAGCAAUAUUACGCGGC | -2.89 ± 0.27 | -3.63 ± 0.42
CCUUAGCAAUAUUACGCUUU | -3.64 ± 0.31 | -2.46 ± 0.22
CCUUAGCAAUAUUACGGAAC |  | -2.73 ± 0.44
CCUUAGCAAUAUUACGUCAC | -3.46 ± 0.26 | -2.21 ± 0.29
CCUUAGCAAUAUUACGUCAU | -3.85 ± 0.21 | -2.96 ± 0.24
CCUUAGCAAUAUUACGUGCU | -3.4 ± 0.18 | -2.83 ± 0.31
CCUUAGCAAUAUUACGUGGC | -4.19 ± 0.31 | -2.88 ± 0.31
CCUUAGCAAUAUUACGUGGG | -2.78 ± 0.16 | -2.35 ± 0.16
CCUUAGCAAUAUUACGUUAU | -2.42 ± 0.14 | -2.45 ± 0.28
CGAAAGCAAUAUUACGAAAA | -2.38 ± 0.29 | -1.32 ± 0.23
CGAAAGCAAUAUUACGAAUG | -0.194 ± 0.057 | 0.263 ± 0.08
CGAAAGCAAUAUUACGACGG | 0.0482 ± 0.089 | 0.569 ± 0.12
CGAAAGCAAUAUUACGACUG | -0.103 ± 0.064 | -0.811 ± 0.078
CGAAAGCAAUAUUACGAGCA | -2.3 ± 0.25 | -0.869 ± 0.24
CGAAAGCAAUAUUACGAGCC | -2.18 ± 0.32 | -1.19 ± 0.3
